Data on two molecules can be found in US6939534B2, “Method to treat pulmonary hypoplasia in the newborn” (GenoMed, LLC, priority 2001, dated 2005).

The conditions of data set [1]: animal models; cited from earlier work.
For a further data set, the system named is type II pneumocytes. The note with it: applied to type II pneumocytes in culture; cited from earlier work.
A short description of data set [2]: Stability under acidification (pH 1-2) and heating (100° C. for 5 min). Format: physicochemical. Conditions: acidification to pH 1-2, heating to 100° C. for 5 min. The method, then:
Since the EGF receptor can be activated by either EGF or transforming growth factor-α (TGF-α), and TGF-α is important in fetal development, and is also elaborated by the distal nephron, the EGF and TGF-α content of human amniotic fluid was measured, using specific radioimmunoassays and immunoprecipitation and immunoblotting. […] EGF, but not TGF-α, is stable under these conditions. […] In neonates, mature EGF (6 kD) is the predominant form in urine.
No significant concentration (<0.6 ng/ml) of TGF-α or EGF in human amniotic fluid was detectable directly by RIA or RRA.

For data set [3] the following is noted: inhaled; cited from earlier work.

epidermal growth factor [EGF]: the toxicity entry in data set [1] was “no toxicity”. Besides, in the data set on type II pneumocytes, the production of surfactant entry is reported as “stimulates production of surfactant”. In addition, the stability result in data set [2] is listed as “stable”.

Take `[N]=O` [inhaled nitric oxide, nitric oxide]: the half-life entry in data set [3] was “very short”.
